From US20240123068A1 (KITE PHARMA, published 2024) come the findings set out here.

In experiment [1] the target is FITC-Labeled human CD19 protein (ACROBiosystem, Cat-CD9-HF251) (human) (UniProt P15391). In words: flow cytometry, ND539 CAR T cells day 9; CD19-FITC protein premixed with anti-CD19 PE (FMC63 clone) 1:3; PE signal read on the cells that hold CD19-FITC by their CAR; competitor CD19 CAR 45 (untransduced 2.95). For orientation: In flow cytometry, cells or beads pass a laser one at a time.

The target is the same in experiment [2]. The experiment is described as follows: flow cytometry, ND539 CAR T cells day 9; CD19-FITC protein premixed with anti-CD19 PE (FMC63 clone) 1:1; PE signal read on the cells that hold CD19-FITC by their CAR; competitor CD19 CAR 43 (untransduced 2.25).
For experiment [3] the target is unchanged. The experiment is described as follows: flow cytometry, ND539 CAR T cells day 9; CD19-FITC protein premixed with anti-CD19 PE (FMC63 clone) 1:3; PE signal read on the cells that hold CD19-FITC by their CAR; competitor CD19 CAR 52 (untransduced 2.95).
Experiment [4] shares this target. In words: flow cytometry, ND539 CAR T cells day 9; CD19-FITC protein premixed with anti-CD19 PE (FMC63 clone) 1:3; PE signal read on the cells that hold CD19-FITC by their CAR; competitor CAR-FMC63 (untransduced 2.95).
For experiment [5] the target is unchanged. The experiment is described as follows: flow cytometry, ND539 CAR T cells day 9; CD19-FITC protein premixed with anti-CD19 PE (FMC63 clone) 1:1; PE signal read on the cells that hold CD19-FITC by their CAR; competitor CAR-FMC63 (untransduced 2.25).
Experiment [6] shares this target. In words: flow cytometry, ND539 CAR T cells day 9; CD19-FITC protein premixed with anti-CD19 PE (FMC63 clone) 1:3; PE signal read on the cells that hold CD19-FITC by their CAR; competitor CD19 CAR 44 (untransduced 2.95).
Experiment [7] shares this target. The experiment is described as follows: flow cytometry, ND539 CAR T cells day 9; CD19-FITC protein premixed with anti-CD19 PE (FMC63 clone) 1:1; PE signal read on the cells that hold CD19-FITC by their CAR; competitor CD19 CAR 45 (untransduced 2.25).
Experiment [8] shares this target. In words: flow cytometry, ND539 CAR T cells day 9; CD19-FITC protein premixed with anti-CD19 PE (FMC63 clone) 1:1; PE signal read on the cells that hold CD19-FITC by their CAR; competitor CD19 CAR 42 (untransduced 2.25).
The target is the same in experiment [9]. The experiment is described as follows: flow cytometry, ND539 CAR T cells day 9; CD19-FITC protein premixed with anti-CD19 PE (FMC63 clone) 1:1; PE signal read on the cells that hold CD19-FITC by their CAR; competitor CD19 CAR 52 (untransduced 2.25).
Experiment [10] shares this target. The experiment is described as follows: flow cytometry, ND539 CAR T cells day 9; CD19-FITC protein premixed with anti-CD19 PE (FMC63 clone) 1:3; PE signal read on the cells that hold CD19-FITC by their CAR; competitor CD19 CAR 43 (untransduced 2.95).
Experiment [11] has the same target. The experiment is described as follows: flow cytometry, ND539 CAR T cells day 9; CD19-FITC protein premixed with anti-CD19 PE (FMC63 clone) 1:1; PE signal read on the cells that hold CD19-FITC by their CAR; competitor CD19 CAR 44 (untransduced 2.25).
For experiment [12] the target is unchanged. The experiment is described as follows: flow cytometry, ND539 CAR T cells day 9; CD19-FITC protein premixed with anti-CD19 PE (FMC63 clone) 1:3; PE signal read on the cells that hold CD19-FITC by their CAR; competitor CD19 CAR 46 (untransduced 2.95).
For experiment [13] the target is unchanged. The experiment is described as follows: flow cytometry, ND539 CAR T cells day 9; CD19-FITC protein premixed with anti-CD19 PE (FMC63 clone) 1:3; PE signal read on the cells that hold CD19-FITC by their CAR; competitor CD19 CAR 42 (untransduced 2.95).
Experiment [14] has the same target. The experiment is described as follows: flow cytometry, ND539 CAR T cells day 9; CD19-FITC protein premixed with anti-CD19 PE (FMC63 clone) 1:1; PE signal read on the cells that hold CD19-FITC by their CAR; competitor CD19 CAR 46 (untransduced 2.25).
For experiment [15], the target named is Human CD19, wild-type full-length protein expressed on cells (human) (UniProt P15391). The experiment is described as follows: high-throughput flow cytometry, HEK-293T cells transfected with WT CD19; mean of four replicates; empty vector 0.
Experiment [16] shares this target. In words: high-throughput flow cytometry, HEK-293T cells with WT CD19 vs vector, at 0.25 ug/ml.
Experiment [17] addresses T1, Human CD19, wild-type full-length protein expressed on cells (human, UniProt P15391 20-556).
T1 construct: also called WT CD19; CD19 wild type protein
T1 sequence: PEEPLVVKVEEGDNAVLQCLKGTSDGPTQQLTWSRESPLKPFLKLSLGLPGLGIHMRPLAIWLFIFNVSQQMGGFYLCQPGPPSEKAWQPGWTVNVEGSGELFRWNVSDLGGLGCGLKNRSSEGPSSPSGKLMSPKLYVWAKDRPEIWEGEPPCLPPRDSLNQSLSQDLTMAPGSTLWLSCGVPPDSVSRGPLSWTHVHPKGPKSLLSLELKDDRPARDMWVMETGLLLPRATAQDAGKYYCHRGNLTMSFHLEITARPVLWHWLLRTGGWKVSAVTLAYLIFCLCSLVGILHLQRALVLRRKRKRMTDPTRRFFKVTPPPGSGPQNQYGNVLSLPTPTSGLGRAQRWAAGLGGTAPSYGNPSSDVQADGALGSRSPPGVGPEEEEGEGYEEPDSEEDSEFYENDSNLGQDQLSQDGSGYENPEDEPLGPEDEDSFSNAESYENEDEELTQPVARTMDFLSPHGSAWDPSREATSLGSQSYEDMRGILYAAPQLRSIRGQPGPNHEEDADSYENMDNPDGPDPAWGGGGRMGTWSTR
In words: scFv clone screen on NALM6 cells with and without CD19.
Source text: To ensure that the up to (30) clones could recognize native CD19 expressed on tumor cells, the clones (scFv) were also screened against NALM6 tumor cell line positive (+) CD19 expression (NALM6 cell line⁺ CD19). CD19 knockout Nalm6 cell line (NALM6 cell line⁻ CD1; or CD19KO Nalm6 cell line) were used as a negative control for the selection. CD19KO Nalm6 cell lines used for the screen were engineered CRISPR knocked-out (KO) Nalm6-CD19KO cells. Clones that bound CD19⁺ NALM6 tumor cells, but not CD19-NALM6 tumor cells (CD19KO) were selected (Step 4).

For experiment [18], the target named is T2, SIGLEC 9 (UniProt Q9Y336 18-348, limits assumed).
T2 construct: Counter-screen reagent of Step 3
The experiment is described as follows: counter-screen of the scFv clones against SIGLEC (Step 3).

For experiment [19], the target named is T3, SIGLEC 7 (UniProt Q9Y286 19-357, limits assumed).
T3 construct: Counter-screen reagent of Step 3
The description is as above.

Experiment [20] has as its target T4, SIGLEC 8 (UniProt Q9NYZ4 17-363, limits assumed).
T4 construct: Counter-screen reagent of Step 3
The description is as above.

T3 sequence (Q9Y286 19-357 limits assumed): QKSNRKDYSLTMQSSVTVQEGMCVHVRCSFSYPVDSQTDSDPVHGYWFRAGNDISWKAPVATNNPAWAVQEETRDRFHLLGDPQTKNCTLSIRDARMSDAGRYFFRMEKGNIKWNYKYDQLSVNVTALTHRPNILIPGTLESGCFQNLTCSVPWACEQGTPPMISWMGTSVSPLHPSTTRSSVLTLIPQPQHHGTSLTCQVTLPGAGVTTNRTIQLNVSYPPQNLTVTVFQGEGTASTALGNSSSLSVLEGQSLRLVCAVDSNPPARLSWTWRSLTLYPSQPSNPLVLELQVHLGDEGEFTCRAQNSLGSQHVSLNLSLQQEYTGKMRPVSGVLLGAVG
T4 sequence (Q9NYZ4 17-363 limits assumed): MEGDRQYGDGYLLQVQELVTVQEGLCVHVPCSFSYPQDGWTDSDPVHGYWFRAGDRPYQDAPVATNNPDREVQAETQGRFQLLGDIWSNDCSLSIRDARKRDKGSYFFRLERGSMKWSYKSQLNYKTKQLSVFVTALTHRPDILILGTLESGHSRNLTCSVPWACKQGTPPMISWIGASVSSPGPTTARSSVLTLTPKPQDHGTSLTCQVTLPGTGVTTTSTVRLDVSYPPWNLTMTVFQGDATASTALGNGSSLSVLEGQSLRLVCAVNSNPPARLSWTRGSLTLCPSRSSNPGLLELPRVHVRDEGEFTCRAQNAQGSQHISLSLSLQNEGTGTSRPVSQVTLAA
T2 sequence (Q9Y336 18-348 limits assumed): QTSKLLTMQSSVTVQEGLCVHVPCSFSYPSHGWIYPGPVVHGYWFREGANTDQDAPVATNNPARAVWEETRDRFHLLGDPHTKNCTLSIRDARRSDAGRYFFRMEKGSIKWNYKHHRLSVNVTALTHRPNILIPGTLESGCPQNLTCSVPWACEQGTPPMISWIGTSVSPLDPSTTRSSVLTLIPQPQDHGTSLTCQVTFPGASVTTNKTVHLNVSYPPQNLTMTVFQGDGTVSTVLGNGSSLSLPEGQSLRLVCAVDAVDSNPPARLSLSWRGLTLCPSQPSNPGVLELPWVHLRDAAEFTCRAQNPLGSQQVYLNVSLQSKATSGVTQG

With Anti CD19 (FMC63 Clone)-PE (antibody), the Gated for Anti-CD19 PE Expression in [1] worked out at 18.1 mfi; in [2], 0.041 mfi; in [3], 2.35 mfi; in experiment [4], 1.63 mfi; in experiment [5] it was 0.8 mfi; in experiment [6], 1.26 mfi. Moreover, the Gated for Anti-CD19 PE Expression is 15.9 mfi in experiment [7]; 0.045 mfi in [8]; 3.29 mfi in experiment [9]; 0.97 mfi in experiment [10]; 1.73 mfi in experiment [11]; 0.78 mfi in experiment [12]. The figures for the Gated for Anti-CD19 PE Expression in [13] and in experiment [14] were 0.48 mfi and 0.12 mfi, respectively.

With “HIB19 monoclonal antibody (BioLegend, Cat no. 302202)”, in experiment [15], the mfi at 0.125 ug/ml worked out at 500000 mfi, the mfi at 0.250 ug/ml turned out to be 750000 mfi, the mfi at 0.500 ug/ml was found to be 1.25e+06 mfi and the mfi at 1.000 ug/ml was found to be 1.75e+06 mfi. In experiment [15], this molecule gave a mfi at 2.000 ug/ml of 1.75e+06 mfi and a mfi at 4.000 ug/ml of 2e+06 mfi. For the same molecule, in experiment [16], the Signal:Background amounted to 50.

B1: CD19 E7 scFv (P4) (scFv)
scFv: DIQMTQSPSSLSASVGDRVTITCRASQDITRYLNWYQQKPGKAPKLLIYAASSLQSGVPSRFSGSGSGTDFTLTISSLQPEDFATYYCQQSYSYPPTFGQGTKVEIKGGGGSGGGGSGGGGSQVQLVESGGGVVQPGRSLRLSCAASGFTFRDYGMHWVRQAPGKGLEWVAVISYEGSNEYYADSVKGRFTISRDNSKNTLYLQMNSLRAEDTAVYYCARDRGFAGWYDYAFDPWGQGTLVTVSS
notes: also called 45; clone 45
Regarding B1, the binding result in experiment [17] is recorded as “binds”; in experiment [18] it was “no binding”; in [19], “no binding”; in [20], “no binding”.
